From article PMC4205851, “Protein-tyrosine phosphorylation interaction network in Bacillus subtilis reveals new substrates, kinase activators and kinase cross-talk” (Frontiers in Microbiology, 2014)

Molecular target: T1, Strep-tagged MinD (B. subtilis 168, UniProt Q01464 1-268)
T1 construct: MinD ATPase of B. subtilis 168, PCR fragment in a pQE-30 vector with the His6-tag replaced by the strep-tag; Pre-labelled with Strep-Tactin conjugated to horse radish peroxidase for the far-Western
T1 sequence (looked up): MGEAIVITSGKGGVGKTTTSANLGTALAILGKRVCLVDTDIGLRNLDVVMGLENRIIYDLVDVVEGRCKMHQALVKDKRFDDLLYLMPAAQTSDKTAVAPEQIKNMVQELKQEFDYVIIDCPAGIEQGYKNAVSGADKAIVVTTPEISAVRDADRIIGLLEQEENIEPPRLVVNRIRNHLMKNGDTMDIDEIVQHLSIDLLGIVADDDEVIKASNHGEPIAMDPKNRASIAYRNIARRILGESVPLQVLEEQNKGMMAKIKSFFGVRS
Test: far-Western; PtkA, MinC and TkmA separated by 12% SDS-PAGE, transferred to nitrocellulose and renatured; probed with Strep-tagged MinD labelled with Strep-Tactin-HRP in TBS-T (50 mM Tris pH 7.5, 150 mM NaCl, 0.05% Tween 20) with 1% BSA; AEC staining
Conditions: both partners purified

B1: MinC (purified) (natural protein, B. subtilis 168, UniProt Q01463 1-226, looked up)
chain: MKTKKQQYVTIKGTKNGLTLHLDDACSFDELLDGLQNMLSIEQYTDGKGQKISVHVKLGNRFLYKEQEEQLTELIASKKDLFVHSIDSEVITKKEAQQIREEAEIISVSKIVRSGQVLQVKGDLLLIGDVNPGGTVRAGGNIFVLGSLKGIAHAGFNGNNQAVIAASEMLPTQLRINHVLNRSPDHIQKGNEMECAYLDTDGNMVIERLQHLAHLRPDLTRLEGGM
notes: MinC of B. subtilis 168
  binding result: binds
